Source: US20090136503A1 (BEIJING COTIMES BIOTECH, published 2009)
Where two headings read alike, the source gives them in different places.

Experiments:
[1] = target: T1, TRAIL-R3-Fc fusion protein (human, UniProt O14798 26-221, limits assumed); experiment: ELISA: plate coated with TRAIL-R3-Fc at 1 µg/ml, CTB003 titrated, HRP anti-mouse IgG, TMB, OD 450/650
T1 construct: The origin of the protein is not described; also called TRAIL-R3-Fc fusion antigen; not shown: human IgG1 Fc
T1 sequence (looked up): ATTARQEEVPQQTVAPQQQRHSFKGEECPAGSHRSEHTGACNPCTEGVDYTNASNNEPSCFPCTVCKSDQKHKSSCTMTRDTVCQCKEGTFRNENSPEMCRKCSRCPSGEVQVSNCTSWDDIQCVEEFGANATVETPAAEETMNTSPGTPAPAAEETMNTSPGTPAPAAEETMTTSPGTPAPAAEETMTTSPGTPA

[2] = target: T2, TRAIL-R4-Fc fusion protein (human, UniProt Q9UBN6 56-211); experiment: ELISA: plate coated with TRAIL-R4-Fc at 1 µg/ml, HRP goat anti-mouse IgG1, TMB
T2 construct: The origin of the protein is not described; also called TRAIL-R4-Fc fusion antigen; not shown: human IgG1 Fc
T2 sequence (looked up): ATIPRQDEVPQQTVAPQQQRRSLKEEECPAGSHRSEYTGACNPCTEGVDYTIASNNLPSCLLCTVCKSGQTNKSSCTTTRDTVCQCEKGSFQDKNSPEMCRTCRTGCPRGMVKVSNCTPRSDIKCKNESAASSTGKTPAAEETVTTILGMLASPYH

[3] = target: T3, TRAIL-R1-Fc fusion protein (human, UniProt O00220 24-239); experiment: ELISA: plate coated with TRAIL-R1-Fc at 1 µg/ml, CTB003 titrated, HRP anti-mouse IgG, TMB, OD 450/650
T3 construct: extracellular domain; also called TRAIL-R1-Fc fusion antigen; not shown: Fc portion of human IgG1

[4] = target: T4, Heterodimeric TRAIL-R1-Fc/TRAIL-R2-Fc fusion protein (human, UniProt O00220 24-239; O14763 56-210); experiment: ELISA: plate coated with TRAIL-R1/TRAIL-R2-Fc heterodimer at 1 µg/ml, CTB003 titrated, HRP anti-mouse IgG, TMB, OD 450/650
T4 construct: extracellular domain; also called TRAIL-R1/TRAIL-R2 dimer; TRAIL-R1/TRAIL-R2 heterodimer antigen; not shown: Fc portion of human IgG1

[5] = target: TRAIL-R1 and/or TRAIL-R2 on human cancer cells; experiment: cell-based or functional assay
[6] = target: T5, TRAIL-R2 on the surface of human tumor cells (human, UniProt O14763 56-440); experiment: cell-based or functional assay
[7] = target: T6, BSA (bovine serum albumin), negative control (bovine, UniProt P02769 25-607); experiment: ELISA: plate coated with BSA (control) at 1 µg/ml, HRP goat anti-mouse IgG1, TMB
[8] = target: T1, TRAIL-R3-Fc fusion protein; experiment: ELISA: plate coated with TRAIL-R3-Fc at 1 µg/ml, HRP goat anti-human kappa, TMB
[9] = target: T3, TRAIL-R1-Fc fusion protein; experiment: ELISA: plate coated with TRAIL-R1-Fc at 1 µg/ml, HRP goat anti-human kappa, TMB
[10] = target: T4, Heterodimeric TRAIL-R1-Fc/TRAIL-R2-Fc …; experiment: ELISA: plate coated with TRAIL-R1/TRAIL-R2-Fc heterodimer at 1 µg/ml, HRP goat anti-human kappa, TMB
[11] = target: T2, TRAIL-R4-Fc fusion protein; experiment: ELISA: plate coated with TRAIL-R4-Fc at 1 µg/ml, HRP goat anti-human kappa, TMB
[12] = target: T6, BSA (bovine serum albumin), negative …; experiment: ELISA: plate coated with BSA (control) at 1 µg/ml, HRP goat anti-human kappa, TMB
[13] = target: T5, TRAIL-R2 on the surface of human tumor …; experiment: cell-based or functional assay; remark: listed apart in the source
[14] = target: T1, TRAIL-R3-Fc fusion protein; experiment: ELISA: plate coated with TRAIL-R3-Fc at 1 µg/ml, HRP goat anti-mouse IgG, TMB
[15] = target: T2, TRAIL-R4-Fc fusion protein; experiment: ELISA: plate coated with TRAIL-R4-Fc at 1 µg/ml, HRP goat anti-mouse IgG, TMB
[16] = target: Human IgG1 (control antigen) (human); experiment: ELISA; human IgG1 captured on goat anti-human IgG, antibody at 2 µg/ml
[17] = target: T1, TRAIL-R3-Fc fusion protein; experiment: ELISA: plate coated with TRAIL-R3-Fc at 1 µg/ml, HRP goat anti-human kappa, TMB; remark: listed apart in the source
[18] = target: T6, BSA (bovine serum albumin), negative …; experiment: ELISA: plate coated with BSA (control) at 1 µg/ml, HRP goat anti-human kappa, TMB; remark: listed apart in the source
[19] = target: T2, TRAIL-R4-Fc fusion protein; experiment: ELISA: plate coated with TRAIL-R4-Fc at 1 µg/ml, HRP goat anti-human kappa, TMB; remark: listed apart in the source
[20] = target: T4, Heterodimeric TRAIL-R1-Fc/TRAIL-R2-Fc …; experiment: ELISA: plate coated with TRAIL-R1/TRAIL-R2-Fc heterodimer at 1 µg/ml, HRP goat anti-human kappa, TMB; remark: listed apart in the source
[21] = target: T3, TRAIL-R1-Fc fusion protein; experiment: ELISA: plate coated with TRAIL-R1-Fc at 1 µg/ml, HRP goat anti-human kappa, TMB; remark: listed apart in the source
[22] = target: T6, BSA (bovine serum albumin), negative …; experiment: ELISA: plate coated with BSA (control) at 1 µg/ml, HRP goat anti-human kappa, TMB; remark: listed apart in the source
[23] = target: TRAIL-R1 on the surface of human tumor cells (human, UniProt O00220 24-468); experiment: cell-based or functional assay
[24] = target: T1, TRAIL-R3-Fc fusion protein; experiment: ELISA: plate coated with TRAIL-R3-Fc at 1 µg/ml, HRP goat anti-human kappa, TMB; remark: listed apart in the source
[25] = target: T2, TRAIL-R4-Fc fusion protein; experiment: ELISA: plate coated with TRAIL-R4-Fc at 1 µg/ml, HRP goat anti-human kappa, TMB; remark: listed apart in the source

T6 sequence (P02769 25-607 limits assumed): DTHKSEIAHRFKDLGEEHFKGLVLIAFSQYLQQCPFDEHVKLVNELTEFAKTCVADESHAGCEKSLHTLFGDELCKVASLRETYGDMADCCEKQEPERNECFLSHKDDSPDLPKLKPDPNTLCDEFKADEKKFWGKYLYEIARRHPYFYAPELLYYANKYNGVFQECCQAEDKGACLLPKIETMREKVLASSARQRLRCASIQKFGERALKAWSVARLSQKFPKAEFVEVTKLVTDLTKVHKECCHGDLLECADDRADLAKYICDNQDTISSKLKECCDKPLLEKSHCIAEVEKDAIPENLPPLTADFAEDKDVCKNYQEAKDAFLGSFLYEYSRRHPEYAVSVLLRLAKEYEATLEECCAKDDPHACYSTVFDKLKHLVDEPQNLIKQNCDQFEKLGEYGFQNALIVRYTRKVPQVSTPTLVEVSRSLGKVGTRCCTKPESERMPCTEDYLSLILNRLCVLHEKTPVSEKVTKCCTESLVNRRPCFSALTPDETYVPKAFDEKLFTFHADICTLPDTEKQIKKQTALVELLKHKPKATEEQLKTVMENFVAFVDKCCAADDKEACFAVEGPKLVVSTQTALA

B1: CTB003 murine monoclonal antibody (hybridoma CGMCC 1665) (antibody, mouse IgG1, V domains shown)
VH: EVHLVESGGGLVRPGGSLKLSCAASGFAFSSYDMSWVRQTPEKRLEWVAYISDGGGITYYPDTMKGRLTISRDNAKNTLSLQMSSLKSEDTAMYYCARHITMVVGPFAYWGQGTLVTVSA
VL: DIQMTQSSSSFSVSLGDRVTITCKAGEDIYNRLAWYQQKPGNAPRLLISGATNLETGVPSRFSGSGSGKDYTLSITSLQTEDVATYYCQQYWSTPLTFGAGTKLELK
notes: also called murine CTB003; parental murine CTB003
binding result [1]: no binding (tested: 10^4 ng/ml)
binding result [2]: no binding (tested: 1000 ng/ml)
EC50 (read off the curve) [3]: ~0.02 µg/mL
EC50 (read off the curve) [4]: ~0.02 µg/mL
IC50 (ng/ml), killing of Carov 3 cells, ATPLite cell viability [5]: 24.6 ng/mL
IC50 (ng/ml), killing of Colo205 cells, ATPLite cell viability [5]: 7.1 ng/mL
IC50 (ng/ml), killing of Du145 cells, ATPLite cell viability [5]: 25.3 ng/mL
IC50 (ng/ml), killing of H-2122 cells, ATPLite cell viability [5]: 28.5 ng/mL
IC50 (ng/ml), killing of MDA231 cells, ATPLite cell viability [5]: 3.8 ng/mL
IC50 (ng/ml), killing of MIAcap cells, ATPLite cell viability [5]: 13.2 ng/mL
IC50 (read off the curve); cell viability (%) of Jurkat cells, ATPLite, 16 h [6]: ~0.02 µg/mL
binding result [7]: no binding (tested: 1000 ng/ml)

B2: Human chimeric CTB003 (mouse-human chimeric antibody) (antibody, human IgG1, V domains shown)
VH: EVHLVESGGGLVRPGGSLKLSCAASGFAFSSYDMSWVRQTPEKRLEWVAYISDGGGITYYPDTMKGRFTISRDNAKNTLSLQMSSLKSEDTAMYYCARHITMVVGPFAYWGQGTLVTVSA
VL: DIQMTQSSSSFSVSLGDRVTITCKASEDIYNRLAWYQQKPGNAPRLLISGATSLETGVPSRFSGSGSGKDYTLSITSLQTEDVATYYCQQYWSTPLTFGAGTKLELKR
notes: Human IgG1 / kappa constant regions, made in CHO cells; also called hCTB003; HuCTB003
binding result [8]: no binding (tested: 1000 ng/ml)
binding result [9]: binds
binding result [10]: binds
binding result [11]: no binding (tested: 1000 ng/ml)
binding result [12]: no binding (tested: 1000 ng/ml)

B3: CTB006 murine monoclonal antibody against TRAIL-R2 (hybridoma CGMCC 1691) (antibody, V domains shown)
VH: QVQLQQPGPELVKPGASVRMSCKASGYTFTSYFIHWVKQRPGQGLEWIGWIYPGNVNTKYSEKFKGKATLTADKSSSTAYMQFSSLTSEDSAVYFCARGEAGYFDYWGQGTTLTVSS
VL: DIVMTQSHKFMSTSVGDRVSITCKASQDVSTAVAWYQQKPGQSPRLLIYWASTRHTGVPDRFTGSGSGTDYTLTISSVQAEDQALYYCQQHYRTPWTFGGGTKLEIK
notes: Murine monoclonal antibody; also called Anti-TRAIL-R2 (CTB006); CTB006-HRP
IC50 (ng/ml), killing of Carov 3 cells, ATPLite cell viability [13]: 17.4 ng/mL
IC50 (ng/ml), killing of Colo205 cells, ATPLite cell viability [13]: 5.8 ng/mL
IC50 (ng/ml), killing of Du145 cells, ATPLite cell viability [13]: 55.6 ng/mL
IC50 (ng/ml), killing of H-2122 cells, ATPLite cell viability [13]: 44.1 ng/mL
IC50 (ng/ml), killing of MDA231 cells, ATPLite cell viability [13]: 2.2 ng/mL
IC50 (ng/ml), killing of MIAcap cells, ATPLite cell viability [13]: 9.5 ng/mL
binding result [14]: no binding (tested: 1000 ng/ml)
binding result [15]: no binding (tested: 1000 ng/ml)
OD 450 nm/650 nm [16]: 0.028 OD
IC50 (read off the curve); cell viability (%) of Jurkat cells, ATPLite, 16 h [6]: ~0.01 µg/mL

B4: Human chimeric CTB006 (mouse-human chimeric antibody) (antibody, V domains shown)
VH: EVQLQQSGPELVKPGASVRMSCKASGYTFTSYFIHWVKQRPGQGLEWIGWIYPGNVNTKYSEKFKGKATLTADKSSSTAYMQFSSLTSEDSAVYFCARGEAGYFDYWGQGTTLTVSS
VL: DIVMTQSHKFMSTSVGDRVSITCKASQDVSTAVAWYQQKPGQSPRLLIYWASTRHTGVPDRFTGSGSGTDYTLTISSVQAEDQALYYCQQHYRTPWTFGGGTKLEIKR
notes: Human IgG1 / kappa constant regions, made in CHO cells; also called hCTB006; HuCTB006
IC50 (ng/ml), killing of Carov 3 cells, ATPLite cell viability [13]: 18.5 ng/mL
IC50 (ng/ml), killing of Colo205 cells, ATPLite cell viability [13]: 6.2 ng/mL
IC50 (ng/ml), killing of Du145 cells, ATPLite cell viability [13]: 52.3 ng/mL
IC50 (ng/ml), killing of H-2122 cells, ATPLite cell viability [13]: 42.1 ng/mL
IC50 (ng/ml), killing of MDA231 cells, ATPLite cell viability [13]: 1.5 ng/mL
IC50 (ng/ml), killing of MIAcap cells, ATPLite cell viability [13]: 10.1 ng/mL
binding result [17]: no binding (tested: 1000 ng/ml)
binding result [18]: no binding (tested: 1000 ng/ml)
binding result [19]: no binding (tested: 1000 ng/ml)
binding result [20]: binds
binding result [21]: no binding (tested: 1000 ng/ml)

B5: Human chimeric CTB007 (mouse-human chimeric antibody) (antibody, V domains shown)
VH: EVQLQQSGAELVKPGASVKLSCTASGFNIKDTYMHWVKQRPEQGLEWIGRIDPANGNTKYDPKFQGKATITADTSSNTAYLQLSSLTSEDTAVYYCAYYYVSNAWFTYWGQGTLVTVSA
VL: DIQMTQSPASLSVSVGETVTITCRASENIYSNLEWYQQKQGKSPQLLVYAATNLADGVPSRFSGSGSGTQYSLKINSLQSEDFGSYYCQHFWGTWTFGGGTKLEIKR
notes: Human IgG1 / kappa constant regions, made in CHO cells; also called hCTB007; HuCTB007
binding result [22]: no binding (tested: 1000 ng/ml)
IC50 (ng/ml), killing of Carov 3 cells, ATPLite cell viability [23]: 31.6 ng/mL
IC50 (ng/ml), killing of Colo205 cells, ATPLite cell viability [23]: 5.9 ng/mL
IC50 (ng/ml), killing of Du145 cells, ATPLite cell viability [23]: 28.6 ng/mL
IC50 (ng/ml), killing of H-2122 cells, ATPLite cell viability [23]: 22.5 ng/mL
IC50 (ng/ml), killing of MDA231 cells, ATPLite cell viability [23]: 7.5 ng/mL
IC50 (ng/ml), killing of MIAcap cells, ATPLite cell viability [23]: 8.8 ng/mL
binding result [24]: no binding (tested: 1000 ng/ml)
binding result [25]: no binding (tested: 1000 ng/ml)
